From the supplement of paper PMC12458215
± gives the uncertainty stated by the source.

Tested on: HEK293T
Test: plasma membrane surface immunostaining intensity (anti-HA, deep receptor scanning) (arbitrary fluorescence units); higher = higher plasma membrane expression

MASPRSSGQPGPPPPPPPPPARLLLLLLLPLLLPLAPGAWGWARGAPRPPPSSPPLSIMGLMPLTKEVAKGSIGRGVLPAVELAIEQIRNESLLRPYFLDLRLYDTECDNAKGLKAFYDAIKYGPNHLMVFGGVCPSVTSIIAESLQGWNLVQLSFAATTPVLADKKKYPYFFRTVPSDNAVNPAILKLLKHYQWKRVGTLTQDVQRFSEVRNDLTGVLYGEDIEISDTESFSNDPCTSVKKLKGNDVRIILGQFDQNMAAKVFCCAYEENMYGSKYQWIIPGWYEPSWWEQVHTEANSSRCLRKNLLAAMEGYIGVDFEPLSSKQIKTISGKTPQQYEREYNNKRSGVGPSKFHGYAYDGIWVIAKTLQRAMETLHASSRHQRIQDFNYTDHTLGRIILNAMNETNFFGVTGQVVFRNGERMGTIKFTQFQDSREVKVGEYNAVADTLEIINDTIRFQGSEPPKDKTIILEQLRKISLPLYSILSALTILGMIMASAFLFFNIKNRNQKLIKMSSPYMNNLIILGGMLSYASIFLFGLDGSFVSEKTFETLCTVRTWILTVGYTTAFGAMFAKTWRVHAIFKNVKMKKKIIKDQKLLVIVGGMLLIDLCILICWQAVDPLRRTVEKYSMEPDPAGRDISIRPLLEHCENTHMTIWLGIVYAYKGLLMLFGCFLAWETRNVSIPALNDSKYIGMSVYNVGIMCIIGAAVSFLTRDQPNVQFCIVALVIIFCSTITLCLVFVPKLITLRTNPDAATQNRRFQFTQNQKKEDSKTSTSVTSVNQASTSRLEGLQSENHRLRMKITELDKDLEEVTMQLQDTPEKTTYIKQNHYQELNDILNLGNFTESTDGGKAILKNHLDQNPQLQWNTTEPSRTCKDPIEDINSPEHIQRRLSLQLPILHHAYLPSIGGVDASCVSPCVSPTASPRHRHVPPSFRVMVSGL [GABBR2]
plasma membrane surface immunostaining intensity (GPCR class: C): 6210 ± 48

MTSNFSQPVVQLCYEDVNGSCIETPYSPGSRVILYTAFSFGSLLAVFGNLLVMTSVLHFKQLHSPTNFLIASLACADFLVGVTVMLFSMVRTVESCWYFGAKFCTLHSCCDVAFCYSSVLHLCFICIDRYIVVTDPLVYATKFTVSVSGICISVSWILPLTYSGAVFYTGVNDDGLEELVSALNCVGGCQIIVSQGWVLIDFLLFFIPTLVMIILYSKIFLIAKQQAIKIETTSSKVESSSESYKIRVAKRERKAAKTLGVTVLAFVISWLPYTVDILIDAFMGFLTPAYIYEICCWSAYYNSAMNPLIYALFYPWFRKAIKLILSGDVLKASSSTISLFLE [TAAR8]
plasma membrane surface immunostaining intensity (GPCR class: A): 352 ± 170

MDPTISTLDTELTPINGTEETLCYKQTLSLTVLTCIVSLVGLTGNAVVLWLLGCRMRRNAFSIYILNLAAADFLFLSGRLIYSLLSFISIPHTISKILYPVMMFSYFAGLSFLSAVSTERCLSVLWPIWYRCHRPTHLSAVVCVLLWALSLLRSILEWMLCGFLFSGADSAWCQTSDFITVAWLIFLCVVLCGSSLVLLIRILCGSRKIPLTRLYVTILLTVLVFLLCGLPFGIQFFLFLWIHVDREVLFCHVHLVSIFLSALNSSANPIIYFFVGSFRQRQNRQNLKLVLQRALQDASEVDEGGGQLPEEILELSGSRLEQ [MRGPRX1]
plasma membrane surface immunostaining intensity (GPCR class: A): 6278 ± 45

MALTPESPSSFPGLAATGSSVPEPPGGPNATLNSSWASPTEPSSLEDLVATGTIGTLLSAMGVVGVVGNAYTLVVTCRSLRAVASMYVYVVNLALADLLYLLSIPFIVATYVTKEWHFGDVGCRVLFGLDFLTMHASIFTLTVMSSERYAAVLRPLDTVQRPKGYRKLLALGTWLLALLLTLPVMLAMRLVRRGPKSLCLPAWGPRAHRAYLTLLFATSIAGPGLLIGLLYARLARAYRRSQRASFKRARRPGARALRLVLGIVLLFWACFLPFWLWQLLAQYHQAPLAPRTARIVNYLTTCLTYGNSCANPFLYTLLTRNYRDHLRGRVRGPGSGGGRGPVPSLQPRARFQRCSGRSLSSCSPQPTDSLVLAPAAPARPAPEGPRAPA [UTS2R]
plasma membrane surface immunostaining intensity (GPCR class: A): 2430 ± 120

MWGRLLLWPLVLGFSLSGGTQTPSVYDESGSTGGGDDSTPSILPAPRGYPGQVCANDSDTLELPDSSRALLLGWVPTRLVPALYGLVLVVGLPANGLALWVLATQAPRLPSTMLLMNLAAADLLLALALPPRIAYHLRGQRWPFGEAACRLATAALYGHMYGSVLLLAAVSLDRYLALVHPLRARALRGRRLALGLCMAAWLMAAALALPLTLQRQTFRLARSDRVLCHDALPLDAQASHWQPAFTCLALLGCFLPLLAMLLCYGATLHTLAASGRRYGHALRLTAVVLASAVAFFVPSNLLLLLHYSDPSPSAWGNLYGAYVPSLALSTLNSCVDPFIYYYVSAEFRDKVRAGLFQRSPGDTVASKASAEGGSRGMGTHSSLLQ [F2RL3]
plasma membrane surface immunostaining intensity (GPCR class: A): 894 ± 240

MKSDNHSFLGDSPKAFILLGVSDRPWLELPLFVVLLLSYVLAMLGNVAIILASRVDPQLHSPMYIFLSHLSFLDLCYTTTTVPQMLVNMGSSQKTISYGGCTVQYAVFHWLGCTECIVLAAMALDRYVAICKPLHYAVLMHRALCQQLVALAWLSGFGNSFVQVVLTVQLPFCGRQVLNNFFCEVPAVIKLSCADTAVNDTILAVLVAFFVLVPLALILLSYGFIARAVLRIQSSKGRHKAFGTCSSHLMIVSLFYLPAIYMYLQPPSSYSQEQGKFISLFYSIITPTLNPFTYTLRNKDMKGALRRLLARIWRLCG [OR2B11]
plasma membrane surface immunostaining intensity (GPCR class: A (Olfactory)): 238 ± 84

MNATGTPVAPESCQQLAAGGHSRLIVLHYNHSGRLAGRGGPEDGGLGALRGLSVAASCLVVLENLLVLAAITSHMRSRRWVYYCLVNITLSDLLTGAAYLANVLLSGARTFRLAPAQWFLREGLLFTALAASTFSLLFTAGERFATMVRPVAESGATKTSRVYGFIGLCWLLAALLGMLPLLGWNCLCAFDRCSSLLPLYSKRYILFCLVIFAGVLATIMGLYGAIFRLVQASGQKAPRPAARRKARRLLKTVLMILLAFLVCWGPLFGLLLADVFGSNLWAQEYLRGMDWILALAVLNSAVNPIIYSFRSREVCRAVLSFLCCGCLRLGMRGPGDCLARAVEAHSGASTTDSSLRPRDSFRGSRSLSFRMREPLSSISSVRSI [S1PR4]
plasma membrane surface immunostaining intensity (GPCR class: A): 6452 ± 53

MTNQTQMMEFLLVRFTENWVLLRLHALLFSLIYLTAVLMNLVIILLMILDHRLHMAMYFFLRHLSFLDLCLISATVPKSILNSVASTDSISFLGCVLQLFLVVLLAGSEIGILTAMSYDRYAAICCPLHCEAVMSRGLCVQLMALSWLNRGALGLLYTAGTFSLNFYGSDELHQFFCDVPALLKLTCSKEHAIISVSVAIGVCYAFSCLVCIVVSYVYIFSAVLRISQRQRQSKAFSNCVPHLIVVTVFLVTGAVAYLKPGSDAPSILDLLVSVFYSVAPPTLNPVIYCLKNKDIKSALSKVLWNVRSSGVMKR [OR14K1]
plasma membrane surface immunostaining intensity (GPCR class: A (Olfactory)): 155 ± 35

MAQQWSLQRLAGRHPQDSYEDSTQSSIFTYTNSNSTRGPFEGPNYHIAPRWVYHLTSVWMIFVVTASVFTNGLVLAATMKFKKLRHPLNWILVNLAVADLAETVIASTISIVNQVSGYFVLGHPMCVLEGYTVSLCGITGLWSLAIISWERWMVVCKPFGNVRFDAKLAIVGIAFSWIWAAVWTAPPIFGWSRYWPHGLKTSCGPDVFSGSSYPGVQSYMIVLMVTCCIIPLAIIMLCYLQVWLAIRAVAKQQKESESTQKAEKEVTRMVVVMIFAYCVCWGPYTFFACFAAANPGYAFHPLMAALPAYFAKSATIYNPVIYVFMNRQFRNCILQLFGKKVDDGSELSSASKTEVSSVSSVSPA [OPN1LW]
plasma membrane surface immunostaining intensity (GPCR class: A): 261 ± 14

MKIANNTVVTEFILLGLTQSQDIQLLVFVLILIFYLIILPGNFLIIFTIRSDPGLTAPLYLFLGNLAFLDASYSFIVAPRMLVDFLSEKKVISYRGCITQLFFLHFLGGGEGLLLVVMAFDRYIAICRPLHCSTVMNPRACYAMMLALWLGGFVHSIIQVVLILRLPFCGPNQLDNFFCDVRQVIKLACTDMFVVELLMVFNSGLMTLLCFLGLLASYAVILCHVRRAASEGKNKAMSTCTTRVIIILLMFGPAIFIYICPFRALPADKMVSLFHTVIFPLMNPMIYTLRNQEVKTSMKRLLSRHVVCQVDFIIRN [OR4N4C]
plasma membrane surface immunostaining intensity (GPCR class: A (Olfactory)): 323 ± 130

MNEDLKVNLSGLPRDYLDAAAAENISAAVSSRVPAVEPEPELVVNPWDIVLCTSGTLISCENAIVVLIIFHNPSLRAPMFLLIGSLALADLLAGIGLITNFVFAYLLQSEATKLVTIGLIVASFSASVCSLLAITVDRYLSLYYALTYHSERTVTFTYVMLVMLWGTSICLGLLPVMGWNCLRDESTCSVVRPLTKNNAAILSVSFLFMFALMLQLYIQICKIVMRHAHQIALQHHFLATSHYVTTRKGVSTLAIILGTFAACWMPFTLYSLIADYTYPSIYTYATLLPATYNSIINPVIYAFRNQEIQKALCLICCGCIPSSLAQRARSPSDV [GPR12]
plasma membrane surface immunostaining intensity (GPCR class: A): 1260 ± 200
